Measurements taken from publication PMC12516131.
pKd: −log10 of the molar value.

Experiments:
[1] = target: eGFP–POK2^2083–2440 (Arabidopsis thaliana); assay: native gel or EMSA; blue native PAGE, 4–12% Tris-Glycine gels, 100 ng of each protein per lane, anti-GFP western blotting and silver staining; oligomeric state in solution
[2] = target: GMPCPP- and paclitaxel-stabilised microtubules (porcine brain tubulin) (porcine (brain tubulin)); assay: single-molecule TIRF microscopy on microtubules; 2 nM eGFP–POK2^2083–2771 in PEM20-based Reaction Buffer on unlabelled stabilised microtubules (IRM); kymographs, landing rate and interaction times of diffusive particles
[3] = target: GMPCPP- and paclitaxel-stabilised microtubules (porcine brain tubulin) (porcine (brain tubulin)); assay: TIRF microscopy microtubule binding assay; 10% rhodamine-labelled GMPCPP/paclitaxel microtubules immobilised on glass by anti-β-tubulin antibody; eGFP–POK2 fragment at increasing concentrations in PEM20-based Reaction Buffer (20 mM K-PIPES pH 6.9, 1 mM MgCl2, 1 mM EGTA, casein, 1 mM ATP, 5 mM DTT); intensity per microtubule length; Hill–Langmuir fit

stoichiometry N [1] | interaction time (subpopulation 1) [2] [s] | interaction time (subpopulation 2) [2] [s] | interaction time (subpopulation 3) [2] [s] | landing rate at 2 nM [2] [µm^−1 min^−1] | pKd [3] | Substance
2 | – | – | – | – | – | eGFP–POK2^2083–2440 (domain or fragment)
– | 0.9 | 6 | 43 | 0.16 | 6.97 | eGFP–POK2^2083–2771–8×His (domain or fragment)
